The source of these data is patent US7094891 (CENTER FOR TRANSLATION RESEARCH IN CANCER, dated 2006).

The test has as its target T1, Human Replication Protein A 32 (RPA32) (human, UniProt P15927 1-270, limits assumed).
T1 construct: Used in the yeast two-hybrid system; also called Replication Protein A 32KD subunit; 32-kDa middle subunit of RPA
The test is described as follows: yeast two-hybrid system (method named in paragraph 31).

T1 sequence (P15927 whole entry): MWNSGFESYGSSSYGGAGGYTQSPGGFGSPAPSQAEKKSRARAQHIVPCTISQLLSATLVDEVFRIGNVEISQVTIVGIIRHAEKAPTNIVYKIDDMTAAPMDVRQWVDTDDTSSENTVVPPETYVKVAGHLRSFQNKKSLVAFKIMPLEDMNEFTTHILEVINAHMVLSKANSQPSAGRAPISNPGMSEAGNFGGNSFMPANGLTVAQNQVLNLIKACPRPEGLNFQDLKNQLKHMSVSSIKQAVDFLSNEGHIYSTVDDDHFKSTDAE

B1: replication protein A binding transcriptional activator 1 (RBT1) (other)
chain: MEGGLKRKHSDLEEEEERWEWSPAGLQSYQQALLRISLDKVQRSLGPRAPSLRRHVLIHNTLQQLQAALRLAPAPALPPEPLFLGEEDFSLSATIGSILRELDTSMDGTEPPQNPVTPLGLQNEVPPQPDPVFLEALSSRYLGDSGLDDFFLDIDTSAVEKEPARAPPEPPHNLFCAPGSWEWNELDHIMEIILGS
notes: Open reading frame of 196 amino acids
Turning to B1, the binding result is recorded as “binds”.
